# Assay results published in PMC2230226.
# How the values were obtained:
# [1] = target: human plasma kallikrein (human) (UniProt P03952)
# human plasmin (human) [2] = target: human plasmin (human)
# [3] = target: bovine factor Xa (bovine)
# [4] = target: bovine pancreatic trypsin (bovine)
# human α-FXIIa (human) = human α-FXIIa (human) (UniProt P00748)
# urokinase (uPA) = urokinase (uPA) (UniProt P00749)
# recombinant sc-tPA = recombinant sc-tPA (UniProt P00750)
# [5] = target: recombinant human FVIIa (NovoSeven) (human) (UniProt P08709)
# Sequence of recombinant human FVIIa (NovoSeven) (human) (P08709 61-212, chain 1 of 2): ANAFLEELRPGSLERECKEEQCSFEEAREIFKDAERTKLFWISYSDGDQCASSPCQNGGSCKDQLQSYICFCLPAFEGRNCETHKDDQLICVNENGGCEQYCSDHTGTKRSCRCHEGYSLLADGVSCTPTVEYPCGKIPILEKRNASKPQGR
# Sequence of recombinant human FVIIa (NovoSeven) (human) (P08709 213-466, chain 2 of 2): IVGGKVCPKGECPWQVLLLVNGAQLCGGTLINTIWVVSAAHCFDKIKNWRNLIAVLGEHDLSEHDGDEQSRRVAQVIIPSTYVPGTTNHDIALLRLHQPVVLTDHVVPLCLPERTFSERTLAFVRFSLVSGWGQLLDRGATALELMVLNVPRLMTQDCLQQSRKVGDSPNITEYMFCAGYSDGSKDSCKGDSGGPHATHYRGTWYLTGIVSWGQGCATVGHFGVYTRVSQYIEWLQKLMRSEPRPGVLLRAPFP
# recombinant tryptase = recombinant tryptase (UniProt Q15661)
# Sequence of recombinant tryptase (Q15661 19-275): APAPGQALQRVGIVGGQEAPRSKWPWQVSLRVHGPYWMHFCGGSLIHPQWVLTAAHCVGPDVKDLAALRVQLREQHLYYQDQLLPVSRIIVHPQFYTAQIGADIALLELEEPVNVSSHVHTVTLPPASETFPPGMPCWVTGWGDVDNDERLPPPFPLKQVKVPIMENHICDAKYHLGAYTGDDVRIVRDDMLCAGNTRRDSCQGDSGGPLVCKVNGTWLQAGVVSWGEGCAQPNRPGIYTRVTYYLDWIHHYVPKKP
# [6] = target: bovine α-thrombin (bovine); test: enzyme inhibition (amidolytic activity, chromogenic substrate); Ki of thrombin inhibition; tight-binding kinetics assumed, apparent (native inhibitor); the conditions of the Ki determination itself are not told
# [7] = target: bovine pancreatic trypsin (bovine); test: native gel or EMSA; 500 ng human thrombin or bovine trypsin in 25 mM Tris-HCl pH 8.0, 190 mM glycine, mixed with increasing boophilin, 15 min at room temperature; 10% Tris-glycine polyacrylamide gel at 4°C, silver-stained
# human α-thrombin (human) = test: as above
# [8] = target: bovine pancreatic trypsin (bovine); test: enzyme inhibition kinetics (progress curves, chromogenic substrate); slow-binding inhibition; second-order rate constant k2/Ki from kobs; 0.2 mM Chromozym TH (trypsin, 6.25 ng/ml) or Chromozym PL (plasmin, 12.5 µg/ml); boophilin 0.1-0.65 µM (trypsin) or 0.04-0.4 µM (plasmin); 45 min at 37°C
# human plasmin (human) [9] = test: as above
# Target sequence in this assay (P00747 20-580, chain 1 of 2): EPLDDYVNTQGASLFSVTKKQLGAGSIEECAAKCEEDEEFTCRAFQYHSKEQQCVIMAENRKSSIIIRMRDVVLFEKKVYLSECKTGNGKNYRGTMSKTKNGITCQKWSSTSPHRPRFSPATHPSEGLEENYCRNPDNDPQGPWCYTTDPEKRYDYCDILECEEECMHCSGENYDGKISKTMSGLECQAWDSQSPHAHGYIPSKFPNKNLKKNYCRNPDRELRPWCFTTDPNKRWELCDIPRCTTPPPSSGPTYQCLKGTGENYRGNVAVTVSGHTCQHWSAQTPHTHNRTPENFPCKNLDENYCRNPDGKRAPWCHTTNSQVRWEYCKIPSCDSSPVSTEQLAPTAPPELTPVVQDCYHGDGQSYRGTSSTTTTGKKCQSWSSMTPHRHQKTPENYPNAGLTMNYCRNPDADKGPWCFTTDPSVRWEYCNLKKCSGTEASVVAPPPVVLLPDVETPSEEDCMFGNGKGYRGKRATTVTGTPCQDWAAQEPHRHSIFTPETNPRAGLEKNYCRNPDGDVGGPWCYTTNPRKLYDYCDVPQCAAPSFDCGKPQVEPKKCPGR
# Target sequence in this assay (P00747 581-810, chain 2 of 2): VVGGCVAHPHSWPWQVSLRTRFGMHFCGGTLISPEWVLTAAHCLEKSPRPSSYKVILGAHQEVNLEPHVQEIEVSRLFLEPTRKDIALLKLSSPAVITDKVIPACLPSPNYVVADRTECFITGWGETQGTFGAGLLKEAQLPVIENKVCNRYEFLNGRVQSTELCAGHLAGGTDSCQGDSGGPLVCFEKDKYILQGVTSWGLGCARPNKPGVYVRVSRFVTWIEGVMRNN
# Sequence of human plasma kallikrein (human) (P03952 20-390, chain 1 of 2): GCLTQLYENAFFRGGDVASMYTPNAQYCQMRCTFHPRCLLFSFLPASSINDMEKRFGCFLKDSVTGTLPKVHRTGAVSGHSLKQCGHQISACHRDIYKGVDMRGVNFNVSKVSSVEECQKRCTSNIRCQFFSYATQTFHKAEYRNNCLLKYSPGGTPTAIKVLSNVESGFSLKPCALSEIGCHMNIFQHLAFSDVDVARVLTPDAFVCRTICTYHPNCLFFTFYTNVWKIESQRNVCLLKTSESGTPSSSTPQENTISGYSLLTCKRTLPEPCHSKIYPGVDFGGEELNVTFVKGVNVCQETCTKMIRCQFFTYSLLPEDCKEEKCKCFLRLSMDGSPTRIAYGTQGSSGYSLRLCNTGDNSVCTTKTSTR
# Sequence of human plasma kallikrein (human) (P03952 391-638, chain 2 of 2): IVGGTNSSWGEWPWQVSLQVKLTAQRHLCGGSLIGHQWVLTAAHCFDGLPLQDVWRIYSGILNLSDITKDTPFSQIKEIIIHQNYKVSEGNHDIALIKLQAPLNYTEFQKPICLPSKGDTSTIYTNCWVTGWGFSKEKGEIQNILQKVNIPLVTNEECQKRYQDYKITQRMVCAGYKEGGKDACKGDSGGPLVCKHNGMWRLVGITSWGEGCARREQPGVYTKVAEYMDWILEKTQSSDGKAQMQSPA
# Sequence of recombinant sc-tPA (P00750 36-562): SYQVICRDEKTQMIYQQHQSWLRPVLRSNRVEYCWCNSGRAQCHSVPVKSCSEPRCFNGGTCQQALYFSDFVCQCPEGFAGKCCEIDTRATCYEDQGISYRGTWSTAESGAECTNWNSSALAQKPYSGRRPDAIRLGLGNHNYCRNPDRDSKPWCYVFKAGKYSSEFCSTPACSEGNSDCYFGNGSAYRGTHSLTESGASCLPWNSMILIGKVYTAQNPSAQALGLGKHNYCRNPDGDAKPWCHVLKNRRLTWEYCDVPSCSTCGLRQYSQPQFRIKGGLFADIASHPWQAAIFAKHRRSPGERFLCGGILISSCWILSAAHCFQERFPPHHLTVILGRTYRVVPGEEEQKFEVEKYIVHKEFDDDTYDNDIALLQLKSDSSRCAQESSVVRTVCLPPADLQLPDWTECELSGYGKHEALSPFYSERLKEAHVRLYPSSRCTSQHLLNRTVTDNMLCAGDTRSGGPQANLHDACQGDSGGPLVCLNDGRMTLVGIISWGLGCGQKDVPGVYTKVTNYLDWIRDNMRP
# Sequence of human α-FXIIa (human) (P00748 20-372, chain 1 of 2): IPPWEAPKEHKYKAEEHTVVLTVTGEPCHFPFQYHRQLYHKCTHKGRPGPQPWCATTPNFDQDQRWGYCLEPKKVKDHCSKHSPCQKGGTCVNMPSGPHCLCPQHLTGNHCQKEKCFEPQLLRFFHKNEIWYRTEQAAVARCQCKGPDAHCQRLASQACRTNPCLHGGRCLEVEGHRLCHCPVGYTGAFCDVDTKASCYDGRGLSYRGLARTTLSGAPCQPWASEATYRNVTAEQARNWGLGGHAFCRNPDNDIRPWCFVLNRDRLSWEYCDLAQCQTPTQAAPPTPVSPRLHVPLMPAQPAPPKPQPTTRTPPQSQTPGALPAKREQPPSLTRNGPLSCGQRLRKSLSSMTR
# Sequence of human α-FXIIa (human) (P00748 373-615, chain 2 of 2): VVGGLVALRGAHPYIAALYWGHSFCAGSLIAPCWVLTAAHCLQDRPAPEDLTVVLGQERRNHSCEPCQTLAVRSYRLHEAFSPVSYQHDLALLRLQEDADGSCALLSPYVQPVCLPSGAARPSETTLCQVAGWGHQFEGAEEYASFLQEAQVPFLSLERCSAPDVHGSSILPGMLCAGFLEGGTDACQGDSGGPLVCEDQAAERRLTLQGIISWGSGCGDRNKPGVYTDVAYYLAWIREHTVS
substance,measurement,setting,value
isolated C-terminal boophilin domain (domain or fragment),"Inhibition of amidolytic activity (%), recombinant inhibitor (C-terminal domain) 15.2 µM, substrate Chromozym PK",[1],0%
same,"Inhibition of amidolytic activity (%), recombinant inhibitor (C-terminal domain) 15.2 µM, substrate Chromozym PL",human plasmin (human) [2],25%
same,"Inhibition of amidolytic activity (%), recombinant inhibitor (C-terminal domain) 15.2 µM, substrate Chromozym X",[3],0%
same,"Inhibition of amidolytic activity (%), recombinant inhibitor (C-terminal domain) 15.2 µM, substrate Pefachrome tPA",[4],80%
same,"Inhibition of amidolytic activity (%), recombinant inhibitor (C-terminal domain) 15.2 µM, substrate Pefachrome FXIIa",human α-FXIIa (human),0%
same,"Inhibition of amidolytic activity (%), recombinant inhibitor (C-terminal domain) 15.2 µM, substrate Pefachrome uPA",urokinase (uPA),17%
same,"Inhibition of amidolytic activity (%), recombinant inhibitor (C-terminal domain) 15.2 µM, substrate Pefachrome tPA",recombinant sc-tPA,2%
same,"Inhibition of amidolytic activity (%), recombinant inhibitor (C-terminal domain) 15.2 µM, substrate Chromozym tPA",[5],0%
same,"Inhibition of amidolytic activity (%), recombinant inhibitor (C-terminal domain) 15.2 µM, substrate Chromozym TH",recombinant tryptase,8%
native boophilin (natural protein),Ki,[6],1.8 nM
same,"Inhibition of amidolytic activity (%), native inhibitor 3.53 µM, substrate Chromozym PK",[1],66%
same,"Inhibition of amidolytic activity (%), native inhibitor 3.53 µM, substrate Chromozym PL",human plasmin (human) [2],87%
same,"Inhibition of amidolytic activity (%), native inhibitor 3.53 µM, substrate Chromozym X",[3],10%
same,"Inhibition of amidolytic activity (%), native inhibitor 3.53 µM, substrate Pefachrome tPA",[4],97%
same,"Inhibition of amidolytic activity (%), native inhibitor 3.53 µM, substrate Pefachrome uPA",urokinase (uPA),16%
same,stoichiometry N,[7],1
same,stoichiometry N,human α-thrombin (human),1
same,second order rate constant k2/Ki,[8],308000 M⁻¹ s⁻¹
"recombinant boophilin (full-length mature protein, variant H2) (from UniProt Q8WPI2 16-142) (natural protein)",Ki,[6],3.4 nM
same,"Inhibition of amidolytic activity (%), recombinant inhibitor (full-length) 2.36 µM, substrate Chromozym PL",human plasmin (human) [2],95%
same,"Inhibition of amidolytic activity (%), recombinant inhibitor (full-length) 2.36 µM, substrate Pefachrome tPA",[4],98%
same,second order rate constant k2/Ki,human plasmin (human) [9],259000 M⁻¹ s⁻¹
same,second order rate constant k2/Ki,[8],384000 M⁻¹ s⁻¹
